Measured values as given in patent US20170240629A1 (Hoffmann-La Roche, published 2017).
Like-named read-outs stand apart in the source and are kept apart here.

What was measured:
[1] = target: T1, human IL-1beta (human, UniProt P01584 117-269); test: cell-based or functional assay
[2] = target: T1, human IL-1beta; test: cell-based or functional assay; remark: listed apart in the source
[3] = target: T1, human IL-1beta; test: cell-based or functional assay; remark: listed apart in the source
[4] = target: T1, human IL-1beta; test: cell-based or functional assay; remark: listed apart in the source
[5] = target: T1, human IL-1beta; test: SPR (BIAcore); antibody captured by anti-Fc, IL-1beta injected
Procedure: (§1) All experiments were performed at 25° C. using HBS-P (10 mM His, 140 mM NaCl, 0.05% Tween 20 pH 7.4) as running and dilution buffer. Anti-human or anti-mouse Fc antibodies were immobilized on a Series S CM5 Sensor Chip (GE Healthcare) using standard amine coupling chemistry. […] The dissociation phase was monitored for 600 sec by washing with running buffer. […] The surface was regenerated by injecting 3 M MgCl2 (for anti-human Fc antibody) or 10 mM Glycine pH 1.5 (for anti-mouse Fc antibody) for 60 sec at a flow rate of 5 μl/min. Bulk refractive index differences were corrected by subtracting the response obtained from a mock surface. Blank injections were subtracted (double referencing). The derived curves were fitted to a 1:1 Langmuir binding model using the BIAevaluation software.

[6] = target: cynomolgus IL-1beta (cynomolgus, UniProt P79182 117-268); test: as above
Procedure: as §1

[7] = target: T1, human IL-1beta; test: SPR (BIAcore T200); antibody captured by anti-human Fc, human IL-1beta injected (Example 52); parameters: t 1/2: unit not given here
[8] = target: T1, human IL-1beta; test: cell-based or functional assay; remark: listed apart in the source
[9] = target: T1, human IL-1beta; test: SPR inhibition; 10 nM human IL-1beta pre-incubated with antibody, injected over immobilised human IL-1RI (competitor)
Procedure: All experiments were performed at 25° C. using HBS-P (10 mM His, 140 mM NaCl, 0.05% Tween 20 pH 7.4) as running and dilution buffer. Human IL-1RI was immobilized on a Series S CM5 Sensor Chip (GE Healthcare) using standard amine coupling chemistry. […] The surface was regenerated by injecting 10 mM NaOH for 60 sec at a flow rate of 5 μl/min. Bulk refractive index differences were corrected by subtracting the response obtained from a mock surface.

B1: huH34-2 (antibody, V domains shown)
VH: QVQLVQSGAEVKKPGASVKVSCKASGYTFTGYYMHWVRQAPGQGLEWIGYISSYNAFTTYNQKFRGRATFTVDTSISTAYMELSRLRSDDTAVYYCVRSDYYGTSLYWGQGTLVTVSS
VL: EIVLTQSPATLSLSPGERATLSCRASSSVSYMHWSQQKPGQAPRLLIYSTSNLASGIPARFSGSGSGTDFTLTISSLEPEDFAVYYCHQWSNYYTFGQGTKLEIK
notes: Humanized antibody expressed in HEK cells; also called huH34-2 bivalent; humanized version of H34
B1 was tested, and the “IC50, inhibition of ICAM-1 expression upon IL-1beta stimulation of A549 cells” value (“IC50, inhibition … of A549 cells” for short) [1] was 0.23 nM, the “IC50, inhibition of ICAM-1 expression upon IL-1beta stimulation of HUVEC cells” value [2] was 0.3 nM and the “EC50, reduction of IL-6 expression upon IL-1beta stimulation of A549 cells” value (“EC50, reduction” for short) [3] was 0.11 nM. The “IC50, inhibition of proliferation of D10 cells” value [4] was 0.83 nM, the Kd [5] was 0.06 nM and the koff [5] was 0.00011 s⁻¹. For the same binder, the kon [5] was 1.93e+06 M⁻¹ s⁻¹, the Kd [6] was 0.05 nM and the koff [6] was 0.000118 s⁻¹. The kon [6] was 2.2e+06 M⁻¹ s⁻¹, the Kd [7] was 0.05 nM and the koff [7] was 0.000115 s⁻¹. The kon [7] was 2.43e+06 M⁻¹ s⁻¹ and the “t 1/2” value [7] was 101.

B2: Canakinumab (antibody, V domains shown)
VH: QVQLVESGGGVVQPGRSLRLSCAASGFTFSVYGMNWVRQAPGKGLEWVAIIWYDGDNQYYADSVKGRFTISRDNSKNTLYLQMNGLRAEDTAVYYCARDLRTGPFDYWGQGTLVTVSS
VL: EIVLTQSPDFQSVTPKEKVTITCRASQSIGSSLHWYQQKPDQSPKLLIKYASQSFSGVPSRFSGSGSGTDFTLTINSLEAEDAAAYYCHQSSSLPFTFGPGTKVDIKR
In the case of B2, the “IC50, inhibition … of A549 cells” value [1] is reported as 0.31 nM, the “IC50, inhibition of ICAM-1 expression upon IL-1beta stimulation of HUVEC cells” value [2] is reported as 9.02 nM and the “EC50, reduction” value [3] is reported as 0.12 nM. For the same binder, the “IC50, inhibition of proliferation of D10 cells” value [4] was 1.99 nM, the “EC50, reduction” value [8] was 0.0864 µg/mL and the Kd [5] was 0.02 nM. It also gave a koff [5] of 5.2e-05 s⁻¹, a kon [5] of 2.78e+06 M⁻¹ s⁻¹ and a Kd [6] of 13.2 nM. The koff [6] was 0.0284 s⁻¹, the kon [6] was 2.15e+06 M⁻¹ s⁻¹ and the IC50 [9] was 1.6 nM.

B3: huH34-3 (antibody, V domains shown)
VH: QVQLVQSGAEVKKPGASVKVSCKASGYTFTGYYMHWVRQAPGQGLEWIGYISSYSAFTTYNQKFRGRATFTVDTSISTAYMELSRLRSDDTAVYYCVRSDYYGTSLYWGQGTLVTVSS
VL: EIVLTQSPATLSLSPGERATLSCRASSSVSYMHWSQQKPGQAPRLLIYSTSNLASGIPARFSGSGSGTDFTLTISSLEPEDFAVYYCHQWSNYYTFGQGTKLEIK
notes: VH = 11 and VL = 16 read by analogy with huH34-2
B3 was tested, and the “IC50, inhibition … of A549 cells” value [1] was 2.23 nM, the “EC50, reduction” value [3] was 1.09 nM and the Kd [5] was 0.15 nM. It also gave a koff [5] of 0.000302 s⁻¹, a kon [5] of 1.97e+06 M⁻¹ s⁻¹ and a Kd [6] of 0.22 nM. It also gave a koff [6] of 0.000491 s⁻¹ and a kon [6] of 2.21e+06 M⁻¹ s⁻¹.

B4: huH34-1 (antibody, V domains shown)
VH: QVQLVQSGAEVKKPGASVKVSCKASGYTFTGYYMHWVRQAPGQGLEWMGYISSYSGFTTYAQKFQGRVTMTRDTSISTAYMELSRLRSDDTAVYYCARSDYYGTSLYWGQGTLVTVSS
VL: EIVLTQSPATLSLSPGERATLSCRASSSVSYMHWSQQKPGQAPRLLIYSTSNLASGIPARFSGSGSGTDFTLTISSLEPEDFAVYYCHQWSNYYTFGQGTKLEIK
notes: VH = 01 and VL = 16 read by analogy with huH34-2 (VH 06, VL 16); Humanized
B4 was tested, and the “IC50, inhibition … of A549 cells” value [1] was > 7 nM, the “EC50, reduction” value [3] was 5.52 nM and the Kd [5] was 1.02 nM. For the same binder, the koff [5] was 0.00151 s⁻¹, the kon [5] was 1.49e+06 M⁻¹ s⁻¹ and the Kd [6] was 1.31 nM. For the same binder, the koff [6] was 0.00212 s⁻¹ and the kon [6] was 1.61e+06 M⁻¹ s⁻¹.
